# According to patent publication US20240383989A1 (PHARMABCINE, published 2024):
# Numbering of substitutions follows the chain as printed.
# B1: D4 (scFv) (scFv, part only; not given: scFv linker, domain order, tags, V domains shown, not shown: another chain or arm of the molecule; small tags and cut ends)
# VH: EVQLVESGGGLVQPGGSLRLSCAASGYTFSSYWMSWVRQAPGKGLEWVSEINPGNGHTNYNEKFKSRFTISRDKSKNTLYLQMNSLRAEDTAVYYCARHWGPSLTSPFDYWGQGTLVTVSS
# VL: DIQMTQSPSSLSASVGDRVTITCRADNLGDVNVHWYQQKPGKAPKLLIYYDADRPSGVPSRFSGSNSGNDATLTISSLQPEDFATYYCQAPTNNDPYTFGQGTKVEIK
# B2: LH-E7 (scFv) (scFv, V domains shown)
# VH: B1 VH
# VL: DIQMTQSPSSLSASVGDRVTITCRADNLGDVNVHWYQQKPGKAPKLLIYYDADRPSGVPSRFSGSNSGNDATLTISSLQPEDFATYYCQAPTRIAPYTFGQGTKVEIKR
# B3: LHL-G1 (scFv) (scFv, V domains shown)
# VH: B1 VH with H99S, W100Y, G101R, Y110F
# VL: B2 VL with R93T, I94N, A95E
# B4: A5 (scFv) (scFv, part only; not given: scFv linker, domain order, tags, V domains shown, not shown: another chain or arm of the molecule; small tags and cut ends)
# VH: B1 VH
# VL: B1 VL with N93T, N94H, D95L
# B5: D4 (IgG) (antibody, V domains shown)
# VH: B1 VH
# VL: B2 VL with R93N, I94N, A95D
# notes: Converted to IgG with the pfusess-hchg1 (human IgG1) and pfuse2ss-hclk (human kappa) vectors
# B6: D3 (scFv) (scFv, part only; not given: scFv linker, domain order, tags, V domains shown, not shown: another chain or arm of the molecule; small tags and cut ends)
# VH: B1 VH
# VL: B1 VL with N93K, D95V
# B7: LH-E7 (IgG) (antibody, V domains shown)
# VH: B1 VH
# VL: B2 VL
# notes: Converted to IgG; VH was cloned into Invivogen pfusess-hchg1 (human IgG1 heavy constant) and VL into pfuse2ss-hclk (human kappa constant); also called LH-67; LH-ET
# B8: A5 (IgG) (antibody, V domains shown)
# VH: B1 VH
# VL: B2 VL with R93T, I94H, A95L
# notes: as for B5
# B9: LHL-G1 (IgG) (antibody, V domains shown)
# VH: B1 VH with H99S, W100Y, G101R, Y110F
# VL: B2 VL with R93T, I94N, A95E
# notes: as for B5
# B10: D3 (IgG) (antibody, V domains shown)
# VH: B1 VH
# VL: B2 VL with R93K, I94N, A95V
# notes: as for B5
# B11: 6A6 (scFv) (scFv, from another filing, V domains shown)
# VH: QMQLVQSGAEVKKPGASVKLSCKASGYTFSSYWMHWVRQAPGQRLEWMGEINPGNGHTNYNEKFKSRVTITVDKSASTAYMELSSLRSEDTAVYYCAKIWGPSLTSPFDYWGQGTLVTVSS
# VL: SNFMLTQPPSVSVSPGKTARITCRGDNLGDVNVHWYQQRPGQAPVLVMYYDADRPSGIPERFSGSNSGNTATLTISGVEAGDEADYYCQVWDRTSEYVFGTGTKVTVLG
# B12: 6A6 (IgG) (antibody, from another filing, V domains shown)
# VH: B11 VH
# VL: B11 VL
# Assays:
# human KDR1 to 3 domain [1] = target: T1, human KDR1 to 3 domain (human, UniProt P35968 20-327, limits assumed); experiment: BLI (Octet), KDR1 to 3 domains on biosensor, scFv added, off-rate screening
# T1 construct: domain: KDR1 to 3 domain; The panning antigen was KDR1 to 3 domain-Fc; Treated as one molecule; also called KDR1 to 3 domains; KDR D1 to D3
# human KDR1 to 3 domain [2] = target: T1, human KDR1 to 3 domain; experiment: BLI (Octet), antibody on biosensor, human KDR1 to 3 as analyte
# Method: The binding of the selected antibodies to the KDR1 to 3 domain was measured using the Octet system (Fortebio Inc. US).
# [3] = target: human KDR1 to 3 domain (human) (UniProt P35968); experiment: BLI (Octet), KDR1 to 3 domains on biosensor, scFv added, off-rate screening
# [4] = target: human KDR1 to 3 domain (human) (UniProt P35968); experiment: BLI (Octet), antibody on biosensor, human KDR1 to 3 as analyte
# T1 sequence (P35968 20-327 limits assumed): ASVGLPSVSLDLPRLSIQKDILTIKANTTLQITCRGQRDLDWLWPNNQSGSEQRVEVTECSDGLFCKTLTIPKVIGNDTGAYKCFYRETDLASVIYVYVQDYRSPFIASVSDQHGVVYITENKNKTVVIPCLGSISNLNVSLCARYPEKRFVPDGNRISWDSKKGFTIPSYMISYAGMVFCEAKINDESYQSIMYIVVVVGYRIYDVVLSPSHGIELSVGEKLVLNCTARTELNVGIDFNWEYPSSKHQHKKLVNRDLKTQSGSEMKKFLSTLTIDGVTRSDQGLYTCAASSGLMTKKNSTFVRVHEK
# Chain of human KDR1 to 3 domain (human) (P35968 20-327 limits assumed): as above
Binder,koff (human KDR1 to 3 domain [1]),Kd (human KDR1 to 3 domain [2]),koff (human KDR1 to 3 domain [2]),other results
B1,0.000165 s⁻¹,–,–,–
B2,0.000111 s⁻¹,–,–,–
B3,0.000239 s⁻¹,–,–,–
B4,0.000187 s⁻¹,–,–,–
B5,–,0.366 nM,3.45e-05 s⁻¹,–
B6,0.00015 s⁻¹,–,–,–
B7,–,1.3 nM,6.55e-05 s⁻¹,kon (human KDR1 to 3 domain [2]): 50600 M⁻¹ s⁻¹
B8,–,0.886 nM,8.86e-05 s⁻¹,–
B9,–,–,0.000251 s⁻¹,kon (human KDR1 to 3 domain [2]): 73700 M⁻¹ s⁻¹
B10,–,0.773 nM,8.67e-05 s⁻¹,kon (human KDR1 to 3 domain [2]): 112000 M⁻¹ s⁻¹
B11,–,–,–,koff [3]: 0.000266 s⁻¹
B12,–,–,–,Kd [4]: 13.2 nM; koff [4]: 0.00168 s⁻¹; kon [4]: 127000 M⁻¹ s⁻¹
